# Changes are numbered by the printed parent chain.
# B1: PRT-379 (enzyme)
# chain: MVTSVWTKGVTPPTNFTYGEDVLHAPYVANQGWYDITKTFNGKDDLLCGAATAGNMLHWWFDQNKEQIENYLKKHPEKQKINFNGEQMFDVKEAIDTKDSQLDSKLFEYFKEKAFPYLSTKHLGVFPDHVIDMFINGYRLSLLNHGPTPVKRGSKDPRGGIFDAVFTRGDQSKLLTNRHDFKEKTLKEISDLIKQELTEGKALGISHTYANVRINHVINLWGADFDAEGNLEAIYVTDSDSNASIGMKKYFVGVNSNGKVAISAKEIEEDNIGAQVLGLFTLSTGQDIWNQTN
# B2: PRT-388 (enzyme)
# chain: B1 chain with D45T, L143T
# B3: PRT-380 (enzyme)
# chain: B1 chain with L143T, V212A
# B4: PRT-387 (enzyme)
# chain: B1 chain with L143T, N257S
# B5: PRT-395 (enzyme)
# chain: MVTSVWTKGVTPPADFTQGEDVFHAPYVANQGWYDITKTFNGKDDLLCGAATAGNMLHWWFDQNKEYIEAYLKKHPEKQKIMFGDQELLDVRKAINTKGSQKNSELFNYFRDKAFPTLSARRLGVMPDLVLDMFINGYYLNVTKTQTTDVNRTYQEKDKRGGIFDAVFTRGDQSKLLTSRHDFKEKGLKEISDLIKQELTEGKALGLSHTYANVRINHVINLWGADFDSDGNLKAIYVTDSDSNASIGMKKYFVGVNSAGKVAISAKEIKEDNIGAQVLGLFTLSTGQDIWNQTN
# B6: PRT-403 (enzyme)
# chain: B5 chain with T117N, N217S
# B7: PRT-396 (enzyme)
# chain: B5 chain with T117N, Y211T
# B8: PRT-411 (enzyme)
# chain: B5 chain with T117N, N244R
# B9: PRT-444 (enzyme)
# chain: MSQTEDSESLQRLRDIEDFQAEKKKQNVVYTKWLDGVDVKDHDFRKIVDGNIAYYATPLLNGRGFYDINKDFNRDSDKCAAAVAANMFHYWLDRNRDNVDRFLRQNPEKHGIIELPDGQLKLSDFLNTYESDDGYRDKSKLFDFISNNFNKPVWTDKLLDNYINGYAYNYKYGRTIEDPTKNTSKINFFKEVFNEKILTNNHSIRNQNEFSVLLSEALYTGKAIGLSYGPAGLRHSLGHIISVWGADLDADGNVVAIYVTDSDDKKLTIGDERVGLKRYKISTDDEGRLRLTAYEETHNTGGQIRGLWTLDTGKQAWADYFDKTEQTGTDQAEQ
# B10: PRT-418 (enzyme)
# chain: MTITSVWTKGVTPPTPEDFRYNNEDVLHAPYVANQGWYDITKTFDGKDNLLCGAATAGNMLHWWFDQNKEEIERYLKKHPEKQKIIFNNQELFDVKAAIDTKDSQTNSKLFNYFRDKAFPNLSARQLGVMPDLVLDMFINGYYLNLGKTQSTDVNRPYQDKDKRGGIFDAVFTRGDQTTLLTARHDLKNKGLNEISDLIKQELTEGKALALSHTYANVRINHVINLWGADFDAEGNLIAIYVTDSDANASIGMKKYAVGVNANGKVAISAKKIEGDNIGAQVLGLFTLSTGQDIWQKLS
# B11: PRT-419 (enzyme)
# chain: B10 chain with A257F, I294Q
# B12: PRT-426 (enzyme)
# chain: B10 chain with M130F, A257F
# B13: PRT-427 (enzyme)
# chain: B10 chain with D176V, A257F
# Molecular target: pooled human IgG (human IgG1, 2, 3 and 4) (human)
# Assay: cell-based or functional assay
# Note: test concentration or dose not given here.
binder,measurement,value
B1,Enzyme Activity Endpoint Assay: Fab′2,599 ng/µL
same,Enzyme Activity Endpoint Assay: Fc,370 ng/µL
same,Enzyme Activity Endpoint Assay: IgG,0 ng/µL
same,Enzyme Activity Endpoint Assay: scIgG,226 ng/µL
B2,Enzyme Activity Endpoint Assay: Fab′2,481 ng/µL
same,Enzyme Activity Endpoint Assay: Fc,338 ng/µL
same,Enzyme Activity Endpoint Assay: IgG,34 ng/µL
same,Enzyme Activity Endpoint Assay: scIgG,222 ng/µL
B3,Enzyme Activity Endpoint Assay: Fab′2,66 ng/µL
same,Enzyme Activity Endpoint Assay: Fc,258 ng/µL
same,Enzyme Activity Endpoint Assay: IgG,219 ng/µL
same,Enzyme Activity Endpoint Assay: scIgG,702 ng/µL
B4,Enzyme Activity Endpoint Assay: Fab′2,605 ng/µL
same,Enzyme Activity Endpoint Assay: Fc,366 ng/µL
same,Enzyme Activity Endpoint Assay: IgG,0 ng/µL
same,Enzyme Activity Endpoint Assay: scIgG,242 ng/µL
B5,Enzyme Activity Endpoint Assay: Fab′2,544 ng/µL
same,Enzyme Activity Endpoint Assay: Fc,358 ng/µL
same,Enzyme Activity Endpoint Assay: IgG,0 ng/µL
same,Enzyme Activity Endpoint Assay: scIgG,204 ng/µL
B6,Enzyme Activity Endpoint Assay: Fab′2,569 ng/µL
same,Enzyme Activity Endpoint Assay: Fc,332 ng/µL
same,Enzyme Activity Endpoint Assay: IgG,166 ng/µL
same,Enzyme Activity Endpoint Assay: scIgG,40 ng/µL
B7,Enzyme Activity Endpoint Assay: Fab′2,0 ng/µL
same,Enzyme Activity Endpoint Assay: Fc,92 ng/µL
same,Enzyme Activity Endpoint Assay: IgG,1010 ng/µL
same,Enzyme Activity Endpoint Assay: scIgG,215 ng/µL
B8,Enzyme Activity Endpoint Assay: Fab′2,519 ng/µL
same,Enzyme Activity Endpoint Assay: Fc,341 ng/µL
same,Enzyme Activity Endpoint Assay: IgG,90 ng/µL
same,Enzyme Activity Endpoint Assay: scIgG,155 ng/µL
B9,Enzyme Activity Endpoint Assay: Fab′2,494 ng/µL
same,Enzyme Activity Endpoint Assay: Fc,321 ng/µL
same,Enzyme Activity Endpoint Assay: IgG,0 ng/µL
same,Enzyme Activity Endpoint Assay: scIgG,286 ng/µL
B10,Enzyme Activity Endpoint Assay: Fab′2,382 ng/µL
same,Enzyme Activity Endpoint Assay: Fc,283 ng/µL
same,Enzyme Activity Endpoint Assay: IgG,288 ng/µL
same,Enzyme Activity Endpoint Assay: scIgG,149 ng/µL
B11,Enzyme Activity Endpoint Assay: Fab′2,528 ng/µL
same,Enzyme Activity Endpoint Assay: Fc,298 ng/µL
same,Enzyme Activity Endpoint Assay: IgG,183 ng/µL
same,Enzyme Activity Endpoint Assay: scIgG,0 ng/µL
B12,Enzyme Activity Endpoint Assay: Fab′2,508 ng/µL
same,Enzyme Activity Endpoint Assay: Fc,283 ng/µL
same,Enzyme Activity Endpoint Assay: IgG,243 ng/µL
same,Enzyme Activity Endpoint Assay: scIgG,0 ng/µL
B13,Enzyme Activity Endpoint Assay: Fab′2,537 ng/µL
same,Enzyme Activity Endpoint Assay: Fc,352 ng/µL
same,Enzyme Activity Endpoint Assay: IgG,135 ng/µL
same,Enzyme Activity Endpoint Assay: scIgG,139 ng/µL

# — US20250027068A1 (published 2025)
